Our source for the Kd, T½ and koff values is patent publication US20120027739A1.

In this assay the target is … HLA-A*01 complex (soluble, biotinylated). The assay can be described thus: BIAcore SPR; pHLA immobilised via biotin, soluble TCR injected. (In general: Surface plasmon resonance follows binding to a sensor surface in real time, without labels.)

B1: soluble disulfide-linked MAGE-A3 TCR: alpha chain with variable domain SEQ ID No: 8, reference TCR beta chain (TCR, V domains shown)
V domain 1: KQEVTQIPAALSVPEGENLVLNCSFTDSAIYNLQWFRQDPGKGLTSLLLVRPYQREQTSGRLNASLDKSSGRSTLYIAASQPGDSATYLCAVRPGGAGSYQLTFGKGTKLSVIP
V domain 2: KAGVTQTPRYLIKTRGQQVTLSCSPISGHRSVSWYQQTPGQGLQFLFEYFSETQRNKGNFPGRFSGRQFSNSRSEMNVSTLELGDSALYLCASSPNMADEQYFGPGTRLTVTE
The term Kd denotes the concentration at which binding is half-saturated. Read a low Kd as a tighter complex. What is called koff is a measure of how fast the partners let go of each other. B1 yielded a Kd of 6.55 µM, a T½ of 6.1 s and a koff of 0.114 s⁻¹.
